Publication PMC12731327, “Structural Analysis of the Putative Succinyl-Diaminopimelic Acid Desuccinylase DapE from Campylobacter jejuni: Captopril-Mediated Structural Stabilization” (Current Issues in Molecular Biology, 2025)

Target: the molecule itself
Assay: SEC; 100 μg tag-free cjDapE on Superdex 200 10/300, 20 mM Tris pH 8.0, 150 mM NaCl, 5 mM β-mercaptoethanol; size by calibration with gel-filtration standards

B1: Campylobacter jejuni DapE (N-succinyl-L,L-diaminopimelic acid desuccinylase) (enzyme, UniProt Q0P9K4 1-365, looked up)
chain: MNAKEFLIELLKFKSVTPNDDGALNFIAMELSDFEAFFIEKEGIKNLLLTKKFKDEGEHLAFGGHVDVVPAGEGWSNNAFAPVEKEGFIYARGAQDMKSGVAAFVDAAKNADFKGARLSLILTSDEEGEAIYGTKAVLEWMQERDMLPDYAVVAEPTCVKKIGDSIKIGRRGSINGKLLIRGKQGHVAYPEKCINPVHDFAPVLKLLAGFDLDPGSAEFSPSKIVITDIRGGMGVCNVTPNDLKLMFNVRNSPDTSLEDVKSYVEKICHGLNYELELKQSSEAFLTNIDNKIVQKMNESVQKITHEVPELNTKGGTSDARYFAKYGVKVVEFGVCNDRIHAIDERVSIEEFEKLCLVFKDLIENF
notes: DapE of Campylobacter jejuni (ATCC 33291 genomic DNA), gene dapE (cj1048c), 365-residue protein, residues 1-365; in one crystal also captopril; The His6 tag was removed with thrombin; also called cjDapE; cjDapEZn; source: E. coli BL21 (DE3), purified (Ni-NTA, thrombin cleavage, Mono Q anion exchange); not shown: His6, N-terminal, cleaved
  stoichiometry N: 2
